We go through one molecule from patent publication US20200283523A1 (WUXI BIOLOGICS IRELAND, published 2020).

What all share (assay): SPR (Biacore), receptor captured on anti-his chip, antibody injected, steady state fit
(In general: Surface plasmon resonance follows binding to a sensor surface in real time, without labels.)

The target in one experiment is T1, FcγRIIa (H167) (UniProt P12318 36-218, limits assumed).
T1 sequence (looked up): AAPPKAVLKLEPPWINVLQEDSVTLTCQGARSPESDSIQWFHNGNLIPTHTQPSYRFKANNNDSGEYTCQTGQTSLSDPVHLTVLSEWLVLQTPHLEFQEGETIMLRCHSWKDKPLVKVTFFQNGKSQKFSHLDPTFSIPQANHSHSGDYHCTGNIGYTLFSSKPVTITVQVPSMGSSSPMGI
On the procedure: (§1) Antibody binding affinity to FcγRs was detected using Biacore T200 (or Biacore 8K). Each receptor was captured on an anti-his antibody immobilized CMS sensor chip (GE). Antibodies at different concentrations were injected over the sensor chip at a flow rate of 30 uL/min for an association phase of 60 s, followed by 60 s dissociation. The chip was then regenerated by 10 mM glycine (pH 1.5) after each binding cycle.
(§2) The sensorgrams of blank surface and buffer channel were subtracted from the test sensorgrams. The experimental data was fitted by 1:1 model using Langmiur analysis (for FcγRI) or steady state model (for other receptors). A molecular weight of 150 KDa was used to calculate the molar concentration of antibodies.

In the next experiment the target is FcγRIIIb (UniProt O75015 17-200). Here is the method: as §1, §2
For a further experiment, the target named is FcγRIIIa (F176) (UniProt P08637 17-208). On the procedure: as §1, §2

Where only a bound is given, the exact number is not on record here.

Chain of FcγRIIIb (O75015 17-200 limits assumed): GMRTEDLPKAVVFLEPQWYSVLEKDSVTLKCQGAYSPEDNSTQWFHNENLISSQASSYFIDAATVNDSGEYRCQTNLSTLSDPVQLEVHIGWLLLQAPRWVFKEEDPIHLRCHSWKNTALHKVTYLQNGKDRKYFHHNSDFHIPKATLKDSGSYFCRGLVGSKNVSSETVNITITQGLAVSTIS
Chain of FcγRIIIa (F176) (P08637 17-208 limits assumed): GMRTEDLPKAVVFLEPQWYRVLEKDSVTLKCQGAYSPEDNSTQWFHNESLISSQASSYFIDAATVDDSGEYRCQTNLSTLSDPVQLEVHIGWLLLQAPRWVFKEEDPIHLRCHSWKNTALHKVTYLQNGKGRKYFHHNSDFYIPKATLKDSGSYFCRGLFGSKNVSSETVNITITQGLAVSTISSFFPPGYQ

B1: W3438-T3U4.E17-1.uIgG4.SP (bispecific antibody)
light 1: DIVMTQSPDSLAVSLGERATINCKSSQSLLNSRTRKNYLAWYQQKPGQPPKLLIYWASTRQSGVPDRFSGSGSGTDFTLTISSLQAEDVAVYYCTQSHTLRTFGGGTKVEIKPDIQNPDPAVYQLRDSKSSDKSVCLFTDFDSQTQVSQSKDSDVYITDKCVLDMRSMDFKSNSAVAWSQKSDFACANAFQNSIIPEDTFFPSPESS
heavy 1: QVQLVQSGAEVKKPGSSVKVSCKASGFAFTDYYIHWVRQAPGQGLEWMGWISPGNVNTKYNENFKGRVTITADKSTSTAYMELSSLRSEDTAVYYCARDGYSLYYFDYWGQGTLVTVLEDLKNVFPPEVAVFEPSEAEISHTQKATLVCLATGFYPDHVELSWWVNGKEVHSGVCTDPQPLKEQPALQDSRYALSSRLRVSATFWQNPRNHFRCQVQFYGLSENDEWTQDRAKPVTQIVSAEAWGRYGPPCPPCPAPEFLGGPSVFLFPPKPKDTLMISRTPEVTCVVVDVSQEDPEVQFNWYVDGVEVHNAKTKPREEQFNSTYRVVSVLTVLHQDWLNGKEYKCKVSNKGLPSSIEKTISKAKGQPREPQVYTLPPCQEEMTKNQVSLWCLVKGFYPSDIAVEWESNGQPENNYKTTPPVLDSDGSFFLYSRLTVDKSRWQEGNVFSCSVMHEALHNHYTQKSLSLSLGK
light 2: DIQLTQSPSFLSASVGDRVTITCSASSTVNYMHWYQQKPGKAPKLLIYSTSNLASGVPSRFSGSGSGTEFTLTISSLQPEDFATYYCHQWSSYPYTFGQGTKLEIKRTVAAPSVFIFPPSDEQLKSGTASVVCLLNNFYPREAKVQWKVDNALQSGNSQESVTEQDSKDSTYSLSSTLTLSKADYEKHKVYACEVTHQGLSSPVTKSFNRGEC
heavy 2: QMQLVQSGPEVKKPGTSVKVSCKASGYAFTSYNMYWVRQARGQRLEWIGYIDPYNGDTTYNQKFKGRVTITRDMSTSTAYMELSSLRSEDTAVYYCLTTAYAMDYWGQGTLVTVSSASTKGPSVFPLAPCSRSTSESTAALGCLVKDYFPEPVTVSWNSGALTSGVHTFPAVLQSSGLYSLSSVVTVPSSSLGTKTYTCNVDHKPSNTKVDKRVESKYGPPCPPCPAPEFLGGPSVFLFPPKPKDTLMISRTPEVTCVVVDVSQEDPEVQFNWYVDGVEVHNAKTKPREEQFNSTYRVVSVLTVLHQDWLNGKEYKCKVSNKGLPSSIEKTISKAKGQPREPQVCTLPPSQEEMTKNQVSLSCAVKGFYPSDIAVEWESNGQPENNYKTTPPVLDSDGSFFLVSRLTVDKSRWQEGNVFSCSVMHEALHNHYTQKSLSLSLGK
notes: Bispecific, bivalent: one anti-CD3 arm with TCR constant domains and one native anti-CD19 Fab arm, IgG4 S228P Fc with knobs-into-holes; also called WBP3438; CD3×CD19 bispecific antibody; copies: 1 + 1 + 1 + 1
Regarding B1, the figures for the dissociation constant (Kd) in the experiment with FcγRIIa (H167), with FcγRIIIb and in the experiment with FcγRIIIa (F176) were 20.5 µM, more than 41 µM and 29.3 µM, respectively.

A word on the Kd: it is a measure of binding affinity in units of concentration.
